Data: IntAct's records for PubMed 22745600

Tests used:
[1] = target: pbx1_mouse Pbx1 (UniProt P41778)
[2] = target: exd_drome exd (UniProt P40427)
[3] = target: exd_drome exd (UniProt P40427); remark: listed apart in the source
[4] = target: exd_drome exd (UniProt P40427); remark: listed apart in the source

Chain of exd_drome exd (P40427 whole entry): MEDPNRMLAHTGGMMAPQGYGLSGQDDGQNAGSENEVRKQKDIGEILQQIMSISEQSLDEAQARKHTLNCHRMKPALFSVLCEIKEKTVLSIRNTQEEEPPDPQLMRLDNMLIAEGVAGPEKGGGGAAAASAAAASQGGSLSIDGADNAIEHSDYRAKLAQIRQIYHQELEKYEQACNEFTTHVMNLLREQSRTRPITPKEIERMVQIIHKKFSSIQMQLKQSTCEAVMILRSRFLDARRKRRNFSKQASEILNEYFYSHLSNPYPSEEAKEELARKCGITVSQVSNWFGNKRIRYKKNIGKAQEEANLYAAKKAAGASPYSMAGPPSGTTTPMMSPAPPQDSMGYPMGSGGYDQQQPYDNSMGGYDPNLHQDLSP
Chain of Homeotic protein ultrabithorax (Drosophila melanogaster (Fruit fly)), P83949 K358A;E359A;N361A;E362A;Q363A (P83949 whole entry K358A/E359A/N361A/E362A/Q363A): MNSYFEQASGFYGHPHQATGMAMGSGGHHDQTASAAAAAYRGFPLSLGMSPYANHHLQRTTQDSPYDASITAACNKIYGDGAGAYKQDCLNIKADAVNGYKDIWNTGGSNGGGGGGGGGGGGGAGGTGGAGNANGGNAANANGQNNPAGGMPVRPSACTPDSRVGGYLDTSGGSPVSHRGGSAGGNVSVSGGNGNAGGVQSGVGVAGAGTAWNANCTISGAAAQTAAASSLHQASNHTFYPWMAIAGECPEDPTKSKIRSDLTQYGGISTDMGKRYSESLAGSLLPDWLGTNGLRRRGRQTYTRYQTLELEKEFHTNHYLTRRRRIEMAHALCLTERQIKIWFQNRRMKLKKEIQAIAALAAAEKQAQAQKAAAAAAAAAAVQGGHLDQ
Chain of Homeobox protein abdominal-A (Drosophila melanogaster (Fruit fly)), P29555 T375A;D376A;W377A (P29555 whole entry T375A/D376A/W377A): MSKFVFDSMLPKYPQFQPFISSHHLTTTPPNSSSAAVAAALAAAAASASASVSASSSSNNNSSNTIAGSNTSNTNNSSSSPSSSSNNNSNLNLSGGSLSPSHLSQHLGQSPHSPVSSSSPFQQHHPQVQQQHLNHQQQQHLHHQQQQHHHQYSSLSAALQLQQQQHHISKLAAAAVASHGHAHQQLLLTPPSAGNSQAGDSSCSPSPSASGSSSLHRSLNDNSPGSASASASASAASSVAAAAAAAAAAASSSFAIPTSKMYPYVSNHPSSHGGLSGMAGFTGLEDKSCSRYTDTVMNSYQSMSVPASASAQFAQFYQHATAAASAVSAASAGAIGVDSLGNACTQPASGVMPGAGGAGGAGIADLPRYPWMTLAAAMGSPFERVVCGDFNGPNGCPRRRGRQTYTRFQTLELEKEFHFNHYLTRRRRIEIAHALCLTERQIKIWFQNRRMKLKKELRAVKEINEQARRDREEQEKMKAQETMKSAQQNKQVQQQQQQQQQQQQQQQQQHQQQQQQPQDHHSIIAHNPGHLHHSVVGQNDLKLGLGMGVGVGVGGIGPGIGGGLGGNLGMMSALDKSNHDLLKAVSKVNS
Chain of Homeobox protein Hox-B8 (Mus musculus), P09632 W137A;M138A (P09632 whole entry W137A/M138A): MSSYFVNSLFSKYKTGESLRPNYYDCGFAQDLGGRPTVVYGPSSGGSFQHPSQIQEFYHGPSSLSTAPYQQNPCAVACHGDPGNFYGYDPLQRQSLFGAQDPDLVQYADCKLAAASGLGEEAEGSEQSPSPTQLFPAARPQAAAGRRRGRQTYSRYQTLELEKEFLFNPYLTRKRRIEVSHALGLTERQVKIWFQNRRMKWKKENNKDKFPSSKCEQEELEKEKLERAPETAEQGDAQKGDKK
Chain of pbx1_mouse Pbx1 (P41778 whole entry): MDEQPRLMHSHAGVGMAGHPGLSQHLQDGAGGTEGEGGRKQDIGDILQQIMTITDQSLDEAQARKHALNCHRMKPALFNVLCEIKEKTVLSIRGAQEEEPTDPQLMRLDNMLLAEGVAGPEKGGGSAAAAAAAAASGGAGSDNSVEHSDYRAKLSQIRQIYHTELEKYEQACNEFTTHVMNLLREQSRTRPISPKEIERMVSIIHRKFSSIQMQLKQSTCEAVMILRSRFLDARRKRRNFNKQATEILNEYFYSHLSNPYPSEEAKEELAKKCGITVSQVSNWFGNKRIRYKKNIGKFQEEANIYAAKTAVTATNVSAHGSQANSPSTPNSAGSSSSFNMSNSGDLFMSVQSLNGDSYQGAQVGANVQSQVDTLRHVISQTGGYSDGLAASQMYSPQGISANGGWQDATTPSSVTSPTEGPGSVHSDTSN
Chain of Homeotic protein labial (Drosophila melanogaster (Fruit fly)), P10105 K393A;W394A;M395A (P10105 other isoform, or with tags, fused parts or gaps K393A;W394A;M395A): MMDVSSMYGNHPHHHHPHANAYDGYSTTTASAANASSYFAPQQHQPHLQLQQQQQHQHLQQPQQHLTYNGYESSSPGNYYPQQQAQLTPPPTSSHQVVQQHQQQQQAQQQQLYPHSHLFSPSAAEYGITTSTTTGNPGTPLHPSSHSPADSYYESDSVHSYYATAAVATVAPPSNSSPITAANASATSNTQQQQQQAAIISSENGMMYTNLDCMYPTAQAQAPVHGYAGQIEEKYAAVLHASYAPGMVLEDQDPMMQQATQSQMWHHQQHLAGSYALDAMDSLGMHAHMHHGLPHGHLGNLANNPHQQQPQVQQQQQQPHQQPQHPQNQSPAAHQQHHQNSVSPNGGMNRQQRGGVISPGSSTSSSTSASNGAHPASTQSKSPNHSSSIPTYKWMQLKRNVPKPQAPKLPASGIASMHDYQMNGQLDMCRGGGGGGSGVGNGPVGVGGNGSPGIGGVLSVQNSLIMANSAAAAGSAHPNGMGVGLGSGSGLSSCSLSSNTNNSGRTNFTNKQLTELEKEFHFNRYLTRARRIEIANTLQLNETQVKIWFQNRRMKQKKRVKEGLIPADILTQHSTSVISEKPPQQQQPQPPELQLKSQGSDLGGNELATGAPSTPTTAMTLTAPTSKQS
Chain of Homeobox protein abdominal-A (Drosophila melanogaster (Fruit fly)), P29555 E462A;I463A;N464A;E465A (P29555 whole entry E462A/I463A/N464A/E465A): as the sequence (P29555 whole entry T375A/D376A/W377A) above, with A375T, A376D, A377W, E462A, I463A, N464A, E465A counted along it

## Homeobox protein Hox-B8 (Mus musculus), P09632 W137A;M138A
[1]
  effect of a mutation on the interaction: decreasing interaction strength

## Homeobox protein abdominal-A (Drosophila melanogaster (Fruit fly)), P29555 E462A;I463A;N464A;E465A
[2]
  effect of a mutation on the interaction: decreasing interaction strength

## Homeobox protein abdominal-A (Drosophila melanogaster (Fruit fly)), P29555 T375A;D376A;W377A
[2]
  effect of a mutation on the interaction: decreasing interaction strength

## Homeotic protein labial (Drosophila melanogaster (Fruit fly)), P10105 K393A;W394A;M395A
[3]
  effect of a mutation on the interaction: decreasing interaction strength

## Homeotic protein ultrabithorax (Drosophila melanogaster (Fruit fly)), P83949 K358A;E359A;N361A;E362A;Q363A
[4]
  effect of a mutation on the interaction: decreasing interaction strength
